Consider one molecule from article PMC2063677.

One series addresses T1, IMP KH3 (Drosophila melanogaster, UniProt Q8IR99 301-396).
T1 sequence: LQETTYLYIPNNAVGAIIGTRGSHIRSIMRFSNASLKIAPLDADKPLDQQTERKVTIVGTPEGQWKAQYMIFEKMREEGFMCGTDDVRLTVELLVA
Put plainly: filter binding.

The target of the next series is T2, IMP full length (Drosophila melanogaster, UniProt Q8IR99 1-573).
T2 sequence: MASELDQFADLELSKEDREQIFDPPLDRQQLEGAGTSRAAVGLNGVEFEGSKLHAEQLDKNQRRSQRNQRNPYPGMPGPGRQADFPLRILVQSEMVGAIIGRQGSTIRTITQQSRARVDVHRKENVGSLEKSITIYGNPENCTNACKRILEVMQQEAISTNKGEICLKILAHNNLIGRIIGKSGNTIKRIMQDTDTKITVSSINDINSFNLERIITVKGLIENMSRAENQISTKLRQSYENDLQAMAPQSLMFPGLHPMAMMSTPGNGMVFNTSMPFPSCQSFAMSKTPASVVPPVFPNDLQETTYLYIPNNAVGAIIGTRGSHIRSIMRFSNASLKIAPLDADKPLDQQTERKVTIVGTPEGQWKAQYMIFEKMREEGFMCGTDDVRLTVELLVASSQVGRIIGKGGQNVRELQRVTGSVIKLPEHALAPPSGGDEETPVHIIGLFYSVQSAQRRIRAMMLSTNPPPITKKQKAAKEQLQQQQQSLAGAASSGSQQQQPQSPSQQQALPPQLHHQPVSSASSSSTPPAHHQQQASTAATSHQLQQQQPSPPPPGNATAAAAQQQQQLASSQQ
The series can be described thus: filter binding.

B1: 3x 4-12-13 WT (UUUAU) (ssRNA)
RNA: GUUUUUAUUAUUUUUAUUUUUUCAACUUUUUAUUAUUUUUAUUUUUUCAACUUUUUAUUAUUUUUAUUUUUUCAAC
Turning to B1, the binding result in the series with IMP KH3 and with IMP full length was “binds” throughout.
